Results published in a protein production outcome set (Wang et al. 2014).

Assay: label from the status in PepcDB records

Which protein production does the source give for “MSHDHHHHHGPGAAHGAGGHSHAPQDFGRAFAIGIALNMVFVVAEAAFGYFSNSMALIADAGHNLSDVAGLVVAWIAAGLSKRPPSARYTYGLRGSSILAALFNAVFLLLAVGAIGWEAVVRLFAPEPVAGITVMVVAGIGIVINAVTAWLFASGRHSDLNIRGAYLHMAADAAVSAAVVVAGVIILSTGWYWIDPAVSLIVAVVIVWGTWGLLRDSTALSLAAVPRDIDPTAVRAFLSKLPGVTQVHDLHIWGMSTTEVALTCHLVMPGGSPGDPFLVDLAHELQHDFGIAHTTVQIETDPNTVCALAPEHVV” here?
Its protein production is “failed”.

Which protein production does the source give for “MFGLSKRAITILFGLLALAFALGAILLFTPQAGQQTRGKPVLWVNGKALYELDLLRLQGNDPLYAASPEGLLKTLVDTYFLEQVILTEALKQDAARVRVSSAEVRQEVNRIREQFGLKDKAAYEQFLNQVGYTDAQLRAEVKTQLQIQKRLEQIRSGAKPTEEEVRFYYEVFKENYRTEPRVKARQIVVDDKALAEELAAKAKAGEDFAALARQHSKVGAEQGGALGAGPGEAEPKPVTQVVFPTEVGEAVFALKGPGVVGPIAAGGRYYIVKVEEYLPSTLPAFEEVKDRVAQDAERAKGNGVLEAYLEELRKKAQVRFAEDNPYAYQNPPVAKVNEKEILLSEVLQPVFSNQQTVALVQQGLGELAVQFFLPQTLENLIDRELLVEAARKSGKPFIGSKAEIAEAYLRYETRDVTASEEEARAFYSENPALFTVPASAKVIGVNFKEEAQAKAFRAAALRGGDLEALAKAQEGTVTDYGTVNPNQLPAVLDRLVFKITETFPQGPLGEVSEVIKMEDGSYTVLLISDRKAEELKGFAQVAEEARQGAVNRKRSEKAQALIQALREEAKIENRLAEVLQALTPKTPSQDQPNSQEQPQPEEAPANNP” here?
The protein production was “failed”.

Which protein production does the source give for “MHLGVIGATGTIGSRVVTEALARGHHVTAFTRDSTQIDEDRGNVVWKSLDVLDAASVAAGISGLDVLISGFQPGNAAKDIADTVARSIADPTVYATAARSLLKALESHPRTRLIVIGGAGSLEIEPGVVRADSDELLHSSLDALGLPRQYAAAVRGHRDALNVLRTSNRLWTYFSPAEDIAPGERTGRFRTGGDQPVLDAEGRSRISVEDAAVALVDEAELPRFVQRRFTIGY” here?
Its protein production is “failed”.

With “STPSSKAINEVSTEDSNVTVTAVVLTSGRRSIQYNGEQHVIREGELADETGKISYTAWDGFSGDLQPGQTVQLGNAGVREWDGQPELNLGDSTDP” as the sequence, how does the protein production read?
Its protein production is “failed”.

With “MNMVEPLAVAILIAYLVALLLIGLLSSKKSSVGMTDFFIAGRNLNKWTVALSAVSSGRSAWLVLGVTGTAYATGLDAVWAVAGYITVEVFLFFYVARRFRAYSEQTGSITIPDILETRFNDKTHILRGGSAFIIMFFMIAYVASQLVAGGGAFATSMGVSSSTGMWVTAVILLAYTMLGGFHAVSKTDVVQAGFMFVSLVILPVVAIIGLGGFDPLLQVMHTEGGGFTSPFAFGFGAVIGLLGIGFGSPGNPHILVRYMSLKNVKEMRQAALISSVWNVLMGWGAVMIGLAGRAYFPDVSLLPNGDQEQVFLMLGSEILHPLFFGFLLVAVLAAIMSSADSQLLVGSSAFVRDIYQKMFRRNRKLSQKKLVRLSRLTTVVFMGLSLILAFTAQEFVFWMVLFAFGGLGACFGPALLLSFYWKGVTRQGVLWGMIAGLLTVILVKQQPQWTYAFLPDVKELLNTYFFGITYEAVPGFIVATTITVVISLFTKRPKHAKQIIERLNESA” as the sequence, how does the protein production read?
Its protein production is “failed”.

With “MSRSQLTILTNICLIEDLETQRVVMQYRAPENNRWSGYAFPGGHVENDEAFAESVIREIYEETGLTIQNPQLVGIKNWPLDTGGRYIVICYKATEFSGTLQSSEEGEVSWVQKDQIPNLNLAYDMLPLMEMMEAPDKSEFFYPRRTEDDWEKKIF” as the sequence, how does the protein production read?
Its protein production is “not failed”.

With “MLTNGMKYHEKLVDESSRNILFIGQDRISGLYDTIGILSIDRKNKKLKIIMIPRDLYIDYSSRVKHYLEENGRLNDPDFYKINAAHLIGPYMKYEGKFGAYSMNFLAELIKEIFDIEVHDYVRVNTEGFVQIVDLFGGVDINVPYDMHYDDIYQDLHIHINKGWNHLDGKKAEGFVRYRQSNDEMGNITHSIGDYERKKNQINFIKAFIEQHGTMSNIDKLPSLISTLNKYMKHSIGVGDVLTTYIGYAKDVVLYKYPIETYTVTGKDKYMNQRYYIVIENDNKTSKVVDLEHHHHHH” as the sequence, how does the protein production read?
The protein production was “failed”.

Which protein production does the source give for “MAMSHLFLSSSPQSSLALRLHSTTQFTLSYSKNNKDCSFQSANEAKVSKRSLLCRAIHMESGHSGEQPKKLNFDNLLRRTKHVWDNSPQPVKEFPWNRAFGNFIQLVLDLAISVVKFLFVPILAVSSISEMSYCAHERKLALVPFPLVIGMVVAGVLQETALKISPRLKEAEVPWHLIAMMMFFTLIKLPGPYYPYWGRLLVPHFANGVLLRALWSMFFWYKKTRNTSGNPLQNHSLETE” here?
Its protein production is “failed”.

With “MEKKKVTIPQVCHGHSRPVVDLFYSPITPDGFFLISASKDSHPMLRNGETGDWIGTFEGHKGAVWSSCLDNNALRAASASADFSAKLWDALTGDVLHSFEHKHIVRACAFSEDTKSLLTGGFEKILRVFDMNRLDAPPTEVDKSPGSIRTLTWLHSDQTILSSCTDIGGVRLWDVRSGKIVQTLETKSPVTSAEVSQDGRYITTADGSTVKFWDANHFGLVKSYDMPCNIESASLEPKSGEKFVAGGEDMWVRVFDFYTGEEIGCNKGHHGPVHCVRFTPTGLSYASGSEDGTIRIWQTTPANPEENETSSRRVKHSVDEVSKKIEGFHINKEGKTAEKPSDT” as the sequence, how does the protein production read?
The protein production was “failed”.

With “MEKKANHGDDVQESVPIIHSQVVKIKREFEKIQHPSLKQPEMPLVFREIMGPRRSRSPLGLGERERSIPVGN” as the sequence, how does the protein production read?
Its protein production is “failed”.

For “MVPVVSPGPLVPVADFGPLDRLRGWIVTGLITLLATVTRFLNLGSLTDAGTPIFDEKHYAPQAWQVLNNHGVEDNPGYGLVVHPPVGKQLIAIGEAIFGYNGFGWRFTGALLGVVLVALVVRIVRRISRSTLVGAIAGVLLICDGVSFVTARTALLDGFLTFFVVAAFGALIVDRDQVRERMHIALLAGRSAATVWGPRVGVRWWRFGAGVLLGLACATKWSGVYFVLFFGAMALAFDVAARRQYQVQRPWLGTVRRDVLPSGYALGLIPFAVYLATYAPWFASETAIDRHAVGQAVGRNSVVPLPDAVRSLWHYTAKAFHFHAGLTNSAGNYHPWESKPWTWPMSLRPVLYAIDQQDVAGCGAQSCVKAEMLVGTPAMWWLAVPVLAYAGWRMFVRRDWRYAVVLVGYCAGWLPWFADIDRQMYFFYAATMAPFLVMGISLVLGDILYHPGQGSERRTLGLIVVCCYVALVVTNFAWLYPVLTGLPISQQTWNLEIWLPSWR”, which protein production is on record?
Its protein production is “failed”.

Which protein production does the source give for “MALPESESARTEQALGRLVGSLCVVTAQQGELSSAMLASWVSQATFSPPGLTVAVAKERAIESLLHKNSCFVLNILQEGNHLGLMKHFLKPFAPGGDRFADVATETAENGAPILTESLAYLECRVQQRLECGDHWVLYAVTDRGALLKDGVTAVHHRKSGDHYLEHHHHHH” here?
Its protein production is “failed”.

Which protein production does the source give for “MHIHILGICGTFMGSLALLARALGHTVTGSDANIYPPMSTQLEQAGVTIEEGYLIAHLQPAPDLVVVGNAMKRGMDVIEYMLDTGLRYTSGPQFLSEQVLQSRHVIAVAGTHGKTTTTTMLAWILHYAGIDAGFLIGGVPLVNTTDTNLQQVFAHSSYLGTEKDDSDNSVNTGYFVIEADEYDSAFFDKRSKFVHYRPRTAILNNLEFDHADIFADLDAIQTQFHHMVRMIPSTGKIIMPAATISLEDTLAKGVWTPIWRTSVIDSTISSVRREDSPLENSQAENSSDWQAELISADGSQFTVSFNDNKEATALVNWSMSGLHNVNNALVAIAAAYNIGVSVKTACAALSAFAGIKRRMELIGDVNDILVFDDFAHHPTAITTTLDGAKKKLADRRLWAIIEPRSNTMKMGIHQDSLAQSATLADHTLWYEPTGLEWGLKEVIDNATIANPSIGSQQVLSSVDDIIKHICTHAKAGDAIVIMSNGGFEGIHQRLLTALGNIVAIL” here?
Its protein production is “not failed”.

With “MRFVATGDWQLGMTAHYLSTEARPRFHRARLDAVKRIGEIAAEQSCDFVVVCGDVFESNQLDRAIISRTFEVLAAFTVPVVLLPGNHDPLDAASIYDSHAFTSRQPGHVHVLRDSEPFEVRPGVEIIGAPWFSKRPQGDLVAQATQNLAEAAPGKVRIIAGHGAVSTLDPDRESLATIDVDSLKTVLREDRAQFVALGDRHATYAVDERIWYSGAPEVTSRREDDPGNVLLVDIDAQSHASSVEKMHIGRWSYLVVEEDVNSDEDVSHLEQRLADIPDKDSTAVWLILRGTLSTAAKSRLDDILDHATDLFALVSLWERHTDIAVVAADEDFAGLGLSGYLQESLDELAETAAGEDLSASAAQDALGLLYRFARSGS” as the sequence, how does the protein production read?
Its protein production is “failed”.

For “VLKQGYMMKKGHRRKNWTERWFVLKPNIISYYVSEDLKDKKGDILLDENCCVESLPDKDGKKCLFLVKCFDKTFEISASDKKKKQEWIQAIHSTIHLLKLGS”, which protein production is on record?
Its protein production is “not failed”.
